Several values for one entry are separate records, joined by “and”; a condition that tells them apart may be missing. Equal entries are not always repeated.
How the values were obtained:
not read = substrate: COC(=O)[C@H](c1ccccc1Cl)N1CCc2sccc2C1; assay: not read
[1] = substrate: CCOC(=O)[C@H](CCc1ccccc1)N[C@H]1CS[C@H](c2cccs2)CN(CC(=O)O)C1=O; assay: (§1) Activity at human recombinant CES1 expressed in baculovirus-infected Spodoptera frugiperda Sf21 cells assessed as substrate hydrolysis by fluorescence assay
[2] = substrate: CCOC(=O)[C@H](CCc1ccccc1)N[C@@H](C)C(=O)N(CC(=O)O)C1Cc2ccccc2C1; assay: as §1
[3] = substrate: CC(C)C[C@H](N)C(=O)OC[C@H]1O[C@@H](n2cc(F)c(=O)[nH]c2=O)C[C@@H]1O; assay: as §1
[4] = substrate: CCc1c2c(nc3ccc(OC(=O)N4CCC(N5CCCCC5)CC4)cc13)-c1cc3c(c(=O)n1C2)COC(=O)[C@]3(O)CC; assay: as §1
[5] = substrate: COc1ccc2cc([C@@H](C#N)OC(=O)[C@H]3[C@@H](C=C(Cl)Cl)C3(C)C)ccc2c1; assay: as §1
[6] = substrate: CC1(C)[C@H](C(=O)OCc2cccc(Oc3ccccc3)c2)[C@@H]1C=C(Cl)Cl; assay: as §1
[7] = substrate: CC(=O)Oc1ccc([N+](=O)[O-])cc1; assay: as §1
[8] = substrate: CC(=O)O[C@H]1C=C[C@H]2[C@H]3Cc4ccc(O)c5c4[C@@]2(CCN3C)[C@H]1O5; assay: as §1
[9] = substrate: N[C@@H](CC(=O)O)C(=O)OC[C@H]1O[C@@H](n2cc(F)c(=O)[nH]c2=O)C[C@@H]1O; assay: as §1
[10] = substrate: COc1ccc2cc(C(C#N)OC(=O)C3C(C)(C)C3(C)C)ccc2c1; assay: as §1
[11] = substrate: CCCC(=O)Oc1ccc([N+](=O)[O-])cc1; assay: as §1
[12] = substrate: COc1ccc2cc([C@H](C#N)OC(=O)[C@H]3[C@@H](C=C(Cl)Cl)C3(C)C)ccc2c1; assay: as §1
[13] = substrate: COC(=O)[C@H](c1ccccc1)[C@H]1CCCCN1; assay: as §1
[14] = substrate: CC1(C)[C@H](C=C(Cl)Cl)[C@@H]1C(=O)OCc1cccc(Oc2ccccc2)c1; assay: as §1
[15] = substrate: CCOC(=O)[C@H](CCc1ccccc1)N[C@@H](C)C(=O)N1C(=O)N(C)C[C@H]1C(=O)O; assay: as §1
[16] = substrate: CC(=O)Oc1ccc2c3c1O[C@H]1[C@@H](OC(C)=O)C=C[C@H]4[C@@H](C2)N(C)CC[C@@]341; assay: as §1
[17] = substrate: COc1ccc2cc([C@H](C#N)OC(=O)[C@H]3[C@H](C=C(Cl)Cl)C3(C)C)ccc2c1; assay: as §1
[18] = substrate: CC(C)[C@H](N)C(=O)OC[C@H]1O[C@@H](n2cc(F)c(=O)[nH]c2=O)C[C@@H]1O; assay: as §1
[19] = substrate: COc1ccc2cc([C@@H](C#N)OC(=O)[C@H]3[C@H](C=C(Cl)Cl)C3(C)C)ccc2c1; assay: as §1
[20] = substrate: CCOC(=O)C1(c2ccccc2)CCN(C)CC1; assay: as §1
[21] = substrate: CCOC(=O)[C@H](CCc1ccccc1)N[C@H]1CCCN2CCC[C@@H](C(=O)O)N2C1=O; assay: as §1
[22] = substrate: N[C@@H](Cc1ccccc1)C(=O)OC[C@H]1O[C@@H](n2cc(F)c(=O)[nH]c2=O)C[C@@H]1O; assay: as §1
[23] = substrate: CCCCCOC(=O)Nc1nc(=O)n([C@@H]2O[C@H](C)[C@@H](O)[C@H]2O)cc1F; assay: as §1
[24] = substrate: CC(C)=C[C@H]1[C@H](C(=O)OCc2coc(Cc3ccccc3)c2)C1(C)C; assay: as §1
[25] = substrate: COC(=O)[C@H]1[C@@H](OC(=O)c2ccccc2)C[C@@H]2CC[C@H]1N2C; assay: as §1
[26] = substrate: CC1(C)[C@@H](C=C(Cl)Cl)[C@@H]1C(=O)OCc1cccc(Oc2ccccc2)c1; assay: as §1
[27] = substrate: COc1cc(C(=O)OCCCN2CCCN(CCCOC(=O)c3cc(OC)c(OC)c(OC)c3)CC2)cc(OC)c1OC; assay: as §1
[28] = substrate: COc1ccc2cc([C@@H](C#N)OC(=O)[C@@H]3[C@@H](C=C(Cl)Cl)C3(C)C)ccc2c1; assay: as §1
[29] = substrate: CCOC(=O)[C@H](CCc1ccccc1)N[C@@H](C)C(=O)N1Cc2ccccc2C[C@H]1C(=O)O; assay: as §1
[30] = substrate: COc1ccc2cc([C@H](C#N)OC(=O)[C@@H]3[C@@H](C=C(Cl)Cl)C3(C)C)ccc2c1; assay: as §1
[31] = substrate: [H][C@@]1([C@@H](C(=O)OC)c2ccccc2)CCCCN1; assay: as §1
[32] = substrate: COc1ccc2cc([C@H](C#N)OC(=O)[C@@H]3[C@H](C=C(Cl)Cl)C3(C)C)ccc2c1; assay: as §1
[33] = substrate: CN(C)C(=O)COC(=O)Cc1ccc(OC(=O)c2ccc(NC(=N)N)cc2)cc1; assay: as §1
[34] = substrate: CCOC(=O)C1=C[C@@H](OC(CC)CC)[C@H](NC(C)=O)[C@@H](N)C1; assay: as §1
[35] = substrate: COc1ccc(C(=O)N2CCCC2=O)cc1; assay: as §1
[36] = substrate: CC1(C)[C@H](C=C(Cl)Cl)[C@H]1C(=O)OCc1cccc(Oc2ccccc2)c1; assay: as §1
[37] = substrate: CC(=O)Oc1ccc2c(C)cc(=O)oc2c1; assay: as §1
[38] = substrate: CCOC(=O)[C@H](CCc1ccccc1)N[C@H]1CCc2ccccc2N(CC(=O)O)C1=O; assay: as §1

B1: Liver carboxylesterase 1 (Homo sapiens) (protein)
chain: MWLRAFILATLSASAAWGHPSSPPVVDTVHGKVLGKFVSLEGFAQPVAIFLGIPFAKPPLGPLRFTPPQPAEPWSFVKNATSYPPMCTQDPKAGQLLSELFTNRKENIPLKLSEDCLYLNIYTPADLTKKNRLPVMVWIHGGGLMVGAASTYDGLALAAHENVVVVTIQYRLGIWGFFSTGDEHSRGNWGHLDQVAALRWVQDNIASFGGNPGSVTIFGESAGGESVSVLVLSPLAKNLFHRAISESGVALTSVLVKKGDVKPLAEQIAITAGCKTTTSAVMVHCLRQKTEEELLETTLKMKFLSLDLQGDPRESQPLLGTVIDGMLLLKTPEELQAERNFHTVPYMVGINKQEFGWLIPMQLMSYPLSEGQLDQKTAMSLLWKSYPLVCIAKELIPEATEKYLGGTDDTVKKKDLFLDLIADVMFGVPSVIVARNHRDAGAPTYMYEFQYRPSFSSDMKPKTVIGDHGDELFSVFGAPFLKEGASEEEIRLSKMVMKFWANFARNGNPNGEGLPHWPEYNQKEGYLQIGANTQAAQKLKDKEVAFWTNLFAKKAVEKPPQTEHIEL
Not read
  Km: 55.7 µM
[1]
  Km: 786 µM
[2]
  Km: 1500 µM
[3]
  Km: 970 µM
[4]
  Km: 1450 µM
[5]
  Km: 1.4 µM
[6]
  Km: 23.8 µM
[7]
  Km: 359 µM
[8]
  Km: 8300 µM
[9]
  Km: 3000 µM
[10]
  Km: 1.5 µM
[11]
  Km: 130 µM
[12]
  Km: 1.5 µM
[13]
  Km: 43.8 µM
[14]
  Km: 23.8 µM
[15]
  Km: 287 µM
[16]
  Km: 6300 µM
[17]
  Km: 1.9 µM
[18]
  Km: 3580 µM
[19]
  Km: 2.4 µM
[20]
  Km: 1900 µM
[21]
  Km: 1300 µM
[22]
  Km: 460 µM
[23]
  Km: 1300 µM
[24]
  Km: 6.72 µM
[25]
  Km: 120 µM
[26]
  Km: 9.8 µM
[27]
  Km: 154 µM
[28]
  Km: 0.7 µM
[29]
  Km: 134 µM
[30]
  Km: 1.7 µM
[31]
  Km: 89.9 µM
[32]
  Km: 0.3 µM
[33]
  Km: 707 µM
[34]
  Km: 177 µM
[35]
  Km: 85 µM and 95 µM
[36]
  Km: 9.8 µM
[37]
  Km: 800 µM
[38]
  Km: 734 µM
